B1: PLAGL1 (parent)
chain: EKPPSGTKEKKHQCDHCERCFYTR

Variants of: B1
Experiment: protein stability index of a GFP-peptide fusion (GPS, HEK-293T) (PSI 1-6); higher = more stable
Conditions: c terminus: a fixed tail appended
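Note: lentivirally expressed fusions sorted by FACS into six bins by GFP to DsRed ratio, PSI derived from sequencing read proportions per bin multiplied by bin number.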

**Q.** For EKPPYGTKEKKHQCDHCERCFYTR [S5Y], which protein stability index is on record?
**A.** 3.57

**Q.** Which protein stability index does the source give for EKPPSATKEKKHQCDHCERCFYTR [G6A] here?
**A.** 3.32

**Q.** For EKPPSCTKEKKHQCDHCERCFYTR [G6C], which protein stability index is on record?
**A.** 4.57

**Q.** For EKPPSDTKEKKHQCDHCERCFYTR [G6D], which protein stability index is on record?
**A.** 3.88

**Q.** For EKPPSETKEKKHQCDHCERCFYTR [G6E], which protein stability index is on record?
**A.** 4.09

**Q.** With EKPPSFTKEKKHQCDHCERCFYTR [G6F] as the variant, how does the protein stability index read?
**A.** 3.79

**Q.** With EKPPSHTKEKKHQCDHCERCFYTR [G6H] as the variant, how does the protein stability index read?
**A.** 3.68

**Q.** With EKPPSITKEKKHQCDHCERCFYTR [G6I] as the variant, how does the protein stability index read?
**A.** 3.17

**Q.** For EKPPSKTKEKKHQCDHCERCFYTR [G6K], which protein stability index is on record?
**A.** 3.52

**Q.** Which protein stability index does the source give for EKPPSLTKEKKHQCDHCERCFYTR [G6L] here?
**A.** 3.92

**Q.** Which protein stability index does the source give for EKPPSMTKEKKHQCDHCERCFYTR [G6M] here?
**A.** 3.39

**Q.** With EKPPSNTKEKKHQCDHCERCFYTR [G6N] as the variant, how does the protein stability index read?
**A.** 3.36

**Q.** Which protein stability index does the source give for EKPPSPTKEKKHQCDHCERCFYTR [G6P] here?
**A.** 4.37

**Q.** For EKPPSQTKEKKHQCDHCERCFYTR [G6Q], which protein stability index is on record?
**A.** 3.16

**Q.** Which protein stability index does the source give for EKPPSRTKEKKHQCDHCERCFYTR [G6R] here?
**A.** 3.07

**Q.** For EKPPSSTKEKKHQCDHCERCFYTR [G6S], which protein stability index is on record?
**A.** 3.27

**Q.** With EKPPSTTKEKKHQCDHCERCFYTR [G6T] as the variant, how does the protein stability index read?
**A.** 4.61

**Q.** Which protein stability index does the source give for EKPPSVTKEKKHQCDHCERCFYTR [G6V] here?
**A.** 4

**Q.** For EKPPSWTKEKKHQCDHCERCFYTR [G6W], which protein stability index is on record?
**A.** 3.13

**Q.** For EKPPSYTKEKKHQCDHCERCFYTR [G6Y], which protein stability index is on record?
**A.** 2.92

**Q.** For EKPPSGAKEKKHQCDHCERCFYTR [T7A], which protein stability index is on record?
**A.** 3.44

**Q.** With EKPPSGCKEKKHQCDHCERCFYTR [T7C] as the variant, how does the protein stability index read?
**A.** 4.29

**Q.** Which protein stability index does the source give for EKPPSGDKEKKHQCDHCERCFYTR [T7D] here?
**A.** 3.77

**Q.** With EKPPSGEKEKKHQCDHCERCFYTR [T7E] as the variant, how does the protein stability index read?
**A.** 3.79

**Q.** For EKPPSGFKEKKHQCDHCERCFYTR [T7F], which protein stability index is on record?
**A.** 3.91

**Q.** Which protein stability index does the source give for EKPPSGGKEKKHQCDHCERCFYTR [T7G] here?
**A.** 3.69

**Q.** With EKPPSGHKEKKHQCDHCERCFYTR [T7H] as the variant, how does the protein stability index read?
**A.** 3.85

**Q.** Which protein stability index does the source give for EKPPSGIKEKKHQCDHCERCFYTR [T7I] here?
**A.** 4.11

**Q.** Which protein stability index does the source give for EKPPSGKKEKKHQCDHCERCFYTR [T7K] here?
**A.** 3.28

**Q.** For EKPPSGLKEKKHQCDHCERCFYTR [T7L], which protein stability index is on record?
**A.** 3.67

**Q.** With EKPPSGMKEKKHQCDHCERCFYTR [T7M] as the variant, how does the protein stability index read?
**A.** 3.56

**Q.** For EKPPSGNKEKKHQCDHCERCFYTR [T7N], which protein stability index is on record?
**A.** 3.6

**Q.** With EKPPSGPKEKKHQCDHCERCFYTR [T7P] as the variant, how does the protein stability index read?
**A.** 3.74

**Q.** With EKPPSGQKEKKHQCDHCERCFYTR [T7Q] as the variant, how does the protein stability index read?
**A.** 3.82

**Q.** For EKPPSGRKEKKHQCDHCERCFYTR [T7R], which protein stability index is on record?
**A.** 3.44

**Q.** For EKPPSGSKEKKHQCDHCERCFYTR [T7S], which protein stability index is on record?
**A.** 3.54

**Q.** For EKPPSGVKEKKHQCDHCERCFYTR [T7V], which protein stability index is on record?
**A.** 4.06

**Q.** With EKPPSGWKEKKHQCDHCERCFYTR [T7W] as the variant, how does the protein stability index read?
**A.** 3.17

**Q.** For EKPPSGYKEKKHQCDHCERCFYTR [T7Y], which protein stability index is on record?
**A.** 3.27

**Q.** For EKPPSGTAEKKHQCDHCERCFYTR [K8A], which protein stability index is on record?
**A.** 3.37

**Q.** With EKPPSGTCEKKHQCDHCERCFYTR [K8C] as the variant, how does the protein stability index read?
**A.** 4.24

**Q.** With EKPPSGTDEKKHQCDHCERCFYTR [K8D] as the variant, how does the protein stability index read?
**A.** 4.33

**Q.** With EKPPSGTEEKKHQCDHCERCFYTR [K8E] as the variant, how does the protein stability index read?
**A.** 4.4

**Q.** With EKPPSGTFEKKHQCDHCERCFYTR [K8F] as the variant, how does the protein stability index read?
**A.** 2.9

**Q.** For EKPPSGTGEKKHQCDHCERCFYTR [K8G], which protein stability index is on record?
**A.** 3.29

**Q.** Which protein stability index does the source give for EKPPSGTHEKKHQCDHCERCFYTR [K8H] here?
**A.** 3.88

**Q.** Which protein stability index does the source give for EKPPSGTIEKKHQCDHCERCFYTR [K8I] here?
**A.** 3.1

**Q.** Which protein stability index does the source give for EKPPSGTLEKKHQCDHCERCFYTR [K8L] here?
**A.** 3.04

**Q.** Which protein stability index does the source give for EKPPSGTMEKKHQCDHCERCFYTR [K8M] here?
**A.** 4.27

**Q.** For EKPPSGTNEKKHQCDHCERCFYTR [K8N], which protein stability index is on record?
**A.** 3.77

**Q.** Which protein stability index does the source give for EKPPSGTPEKKHQCDHCERCFYTR [K8P] here?
**A.** 4.25

**Q.** With EKPPSGTQEKKHQCDHCERCFYTR [K8Q] as the variant, how does the protein stability index read?
**A.** 4.78

**Q.** Which protein stability index does the source give for EKPPSGTREKKHQCDHCERCFYTR [K8R] here?
**A.** 3.48

**Q.** For EKPPSGTSEKKHQCDHCERCFYTR [K8S], which protein stability index is on record?
**A.** 3.66

**Q.** Which protein stability index does the source give for EKPPSGTTEKKHQCDHCERCFYTR [K8T] here?
**A.** 3.48

**Q.** Which protein stability index does the source give for EKPPSGTVEKKHQCDHCERCFYTR [K8V] here?
**A.** 3.9

**Q.** Which protein stability index does the source give for EKPPSGTWEKKHQCDHCERCFYTR [K8W] here?
**A.** 3.35

**Q.** For EKPPSGTYEKKHQCDHCERCFYTR [K8Y], which protein stability index is on record?
**A.** 3.47

**Q.** For EKPPSGTKAKKHQCDHCERCFYTR [E9A], which protein stability index is on record?
**A.** 3.67

**Q.** For EKPPSGTKCKKHQCDHCERCFYTR [E9C], which protein stability index is on record?
**A.** 4.63

**Q.** Which protein stability index does the source give for EKPPSGTKDKKHQCDHCERCFYTR [E9D] here?
**A.** 3.96

**Q.** For EKPPSGTKFKKHQCDHCERCFYTR [E9F], which protein stability index is on record?
**A.** 3.26

**Q.** Which protein stability index does the source give for EKPPSGTKGKKHQCDHCERCFYTR [E9G] here?
**A.** 3.75

**Q.** For EKPPSGTKHKKHQCDHCERCFYTR [E9H], which protein stability index is on record?
**A.** 3.37

**Q.** Which protein stability index does the source give for EKPPSGTKIKKHQCDHCERCFYTR [E9I] here?
**A.** 3.27

**Q.** Which protein stability index does the source give for EKPPSGTKKKKHQCDHCERCFYTR [E9K] here?
**A.** 2.9

**Q.** For EKPPSGTKLKKHQCDHCERCFYTR [E9L], which protein stability index is on record?
**A.** 3

**Q.** For EKPPSGTKMKKHQCDHCERCFYTR [E9M], which protein stability index is on record?
**A.** 2.85

**Q.** For EKPPSGTKNKKHQCDHCERCFYTR [E9N], which protein stability index is on record?
**A.** 3.25

**Q.** For EKPPSGTKPKKHQCDHCERCFYTR [E9P], which protein stability index is on record?
**A.** 3.52

**Q.** Which protein stability index does the source give for EKPPSGTKQKKHQCDHCERCFYTR [E9Q] here?
**A.** 3.77

**Q.** For EKPPSGTKRKKHQCDHCERCFYTR [E9R], which protein stability index is on record?
**A.** 2.52

**Q.** With EKPPSGTKSKKHQCDHCERCFYTR [E9S] as the variant, how does the protein stability index read?
**A.** 3.32

**Q.** For EKPPSGTKTKKHQCDHCERCFYTR [E9T], which protein stability index is on record?
**A.** 3.51

**Q.** Which protein stability index does the source give for EKPPSGTKVKKHQCDHCERCFYTR [E9V] here?
**A.** 3.37

**Q.** For EKPPSGTKWKKHQCDHCERCFYTR [E9W], which protein stability index is on record?
**A.** 3.08

**Q.** Which protein stability index does the source give for EKPPSGTKYKKHQCDHCERCFYTR [E9Y] here?
**A.** 2.6

**Q.** With EKPPSGTKEAKHQCDHCERCFYTR [K10A] as the variant, how does the protein stability index read?
**A.** 3.87

**Q.** Which protein stability index does the source give for EKPPSGTKECKHQCDHCERCFYTR [K10C] here?
**A.** 4.3

**Q.** For EKPPSGTKEDKHQCDHCERCFYTR [K10D], which protein stability index is on record?
**A.** 4.05

**Q.** Which protein stability index does the source give for EKPPSGTKEEKHQCDHCERCFYTR [K10E] here?
**A.** 4.42

**Q.** For EKPPSGTKEFKHQCDHCERCFYTR [K10F], which protein stability index is on record?
**A.** 3.42

**Q.** With EKPPSGTKEGKHQCDHCERCFYTR [K10G] as the variant, how does the protein stability index read?
**A.** 3.91

**Q.** Which protein stability index does the source give for EKPPSGTKEHKHQCDHCERCFYTR [K10H] here?
**A.** 4.05

**Q.** Which protein stability index does the source give for EKPPSGTKEIKHQCDHCERCFYTR [K10I] here?
**A.** 3.77

**Q.** With EKPPSGTKELKHQCDHCERCFYTR [K10L] as the variant, how does the protein stability index read?
**A.** 4.04

**Q.** With EKPPSGTKEMKHQCDHCERCFYTR [K10M] as the variant, how does the protein stability index read?
**A.** 3.76

**Q.** With EKPPSGTKENKHQCDHCERCFYTR [K10N] as the variant, how does the protein stability index read?
**A.** 3.76

**Q.** For EKPPSGTKEPKHQCDHCERCFYTR [K10P], which protein stability index is on record?
**A.** 4.16

**Q.** With EKPPSGTKEQKHQCDHCERCFYTR [K10Q] as the variant, how does the protein stability index read?
**A.** 3.53

**Q.** Which protein stability index does the source give for EKPPSGTKERKHQCDHCERCFYTR [K10R] here?
**A.** 3.43

**Q.** For EKPPSGTKESKHQCDHCERCFYTR [K10S], which protein stability index is on record?
**A.** 3.96

**Q.** With EKPPSGTKETKHQCDHCERCFYTR [K10T] as the variant, how does the protein stability index read?
**A.** 3.78

**Q.** For EKPPSGTKEVKHQCDHCERCFYTR [K10V], which protein stability index is on record?
**A.** 3.9

Reference: the supplement of paper PMC10567573
